Measurements: patent US9725518B2, “Antibodies that bind to Jagged 1” (Cancer Research Technology Limited, priority 2013, dated 2017)
Positions count from the first letter of the chain named.

B1: J1-183D variant 8: humanised/de-immunised J1-183D: J1-183D_VL_2 + J1-183D_VH_4 (antibody, V domains shown)
VH: QVQLVQSGAEVKKPGASVKVSCKASGYTFTDYAIHWVRQAPGQGLEWMGIINTYYGDSKYAQKFQGRVTMTVDTSTSTAYMELSSLRSEDTAVYYCARGYDGFAYWGQGTLVTVSSASTKGP
VL: DIQMTQSPSSLSASVGDRVTITCRTSENIYSYLTWYQQKPGKAPKLLIYNAKTLASGVPSRFSGSGSGTDFTLTISSLQPEDFATYYCQHHYDIPWTFGGGTKLEIKRT
B2: J1-183D variant 9: humanised/de-immunised J1-183D: J1-183D_VL_3 + J1-183D_VH_1 (antibody, V domains shown)
VH: B1 VH with V11L, A24V, T28A, V37I, A61N, Q65K, G66D, T74K
VL: B1 VL with T53I, A55D

Assays:
[1] = tested on: J1-induced Notch signalling; experiment: Luciferase assay, LS174T RBPJ reporter stimulated with J1 protein; format: cell-based, human
Procedure: FIG. 9. […] (A) The colorectal cancer cell line LS174T expressing luciferase under the control of Notch co-factor RBPJ was stimulated with mammalian cell-expressed soluble J1 proteins (NE3-Fc and NE12-Fc) or a control protein in the presence of J1 mAbs (10 μg/ml), and luciferase activity was measured. […] (C) Breast cancer MDA-MB-231 cells were cultured with J1 mAbs. The expression level of the Notch target gene HES1 was measured by qPCR using β2m as the control gene. In all experiments the γ-secretase inhibitor DBZ was used as a positive control for pan Notch inhibition and a control mAb (IgG2b or IgG1) or no treatment (NT) were negative controls.
FIG. 20. Inhibition of human Jagged 1/Notch signalling by humanised and de-immunised J1-mAbs in vitro. The colorectal cancer cell line LS174T expressing luciferase under the control of Notch co-factor RbPJ was stimulated with mammalian cell-expressed recombinant J1 protein (NE3-Fc protein, right bar for each treatment) or a control protein (left bar) in the presence of J1 mAbs (10 μg/ml), and luciferase activity was measured. The parental murine monoclonal antibody (Mo), Murine IgG1, DMSO and DBZ were used as controls.
Having established that the J1 mAbs were able to block the binding of the J1 ligand to its receptor N1 their effect on the activity of the Notch signalling pathway was investigated. The human colorectal cancer cell line LS174T, stably expressing a luciferase reporter gene under control of Notch co-factor RBPJ, was stimulated with two forms of immobilised J1 protein: N-terminus to EGF3 and N-terminus to EGF12. […] Importantly, the best two J1 mAbs (J1-65D and J1-183D) were also tested against other Notch ligands in order to verify ligand specificity.
Prior to experiment, clear bottom 96-well plates (CELLSTAR) wells were coated with either J1-ECD fragments (NE3-Fc and NE12-Fc), other Notch-ligands (J2 or DLL4; both from R&D) or control protein (mlgG2b) at the concentration of 5 μg/ml in 0.1% BSA-PBS (overnight incubation at 4° C.). LS174T colorectal cancer cells, expressing the luciferase gene under control of the Notch cofactor RbPJ, were then plated (4×10^4 cells/well) in the presence of different mAbs (10 μg/ml) or DBZ (100 nM). Luciferase activity was then quantified 24 hours later using the Bright-Glo Luciferase Assay System (Promega).

[2] = tested on: murine Hes1 (N1 signalling mediated via mJ1); experiment: Hes1 qPCR in B16F10 cells stably expressing murine J1; format: cell-based, mouse; settings: mAb 10 μg/ml, DBZ 100 nM, 7 days
Procedure: FIG. 10. […] (A) Mouse melanoma B16F10 cells stably expressing murine J1 were cultured with 10 μg/ml of each J1 mAb, or an IgG1 control antibody, for 7 days with fresh mAb supplemented every 2 days. The γ-secretase inhibitor DBZ (100 nM) was used as a control for Notch inhibition. Cells were harvested, total RNA extracted and cDNA was synthesised. Murine Hes1 expression levels were detected by real-time PCR normalised against GAPDH. […] (B) Human breast cancer (MDA-MB-231) and primary endothelial cells (HUVEC) were cultured over plates coated with recombinant rat Jagged1 (rrJag1-Fc) or a control protein (mIgG1) in the presence of 10 μg/ml of J1 mAbs or isotype control Ab. 24 hours later cells were harvested, total RNA extracted and cDNA was synthesised. Expression of the human Notch-target genes HES1 and HEY2 was analysed by real-time PCR and β2-microglobulin was used as control gene. Results from one representative experiment are shown. […]
Total RNA from cell cultures/spheroids was isolated using RNeasy mini kit (Qiagen, UK) according to the manufacturer's instructions. […] Quantitative PCR (qPCR) analysis was performed in triplicate using the SYBR GreenER qPCR SuperMix Universal (Invitrogen) and Chromo4 fluorescence detector (MJ Research, USA). Relative quantification was done using the ΔΔCt method normalizing to β2-microglobulin gene or murine β-Actin expression. […]

MDA-MB-231 spheroids = experiment: Spheroid assay (3-D growth), MDA-MB-231; format: cell-based, human; settings: humanised variants 5 μg/ml
From the text: Similar findings were also reported for the Merck anti-N1 mAbs when tested on the LS-1034 cell line. As cell-cell contact is required to activate Notch signalling a spheroid-based 3-D growth model was used to test the ability of the J1 mAbs to block tumour growth. Furthermore, the 3-D model better mimics in vivo conditions including hypoxia and acidosis, allowing evaluation of the mAbs effect in a more realistic setting. Spheroids were generated from MDA-MB-231 breast cancer cells and the ability of different concentrations of the J1-65D mAb to inhibit their growth was evaluated.
Cells were harvested and resuspended in 2.5% Matrigel (BD)-complete DMEM medium. Cell suspension was plated on low-adherence 96-well plates (Corning) (200 μl/well) and spheroids, of approximately fixed cell number (5×10^3 cells for MDA-MB-231 and MDA-MB-468 cell lines; 2×10^3 for MCF7 cells) were then generated by spinning plates at 1800 rpm for 10 minutes. The following day, pictures of the spheroids were taken (day 1) and treatments were added (mAbs were used at 10 μg/ml [5 μg/ml for humanised antibodies] while DBZ was used at the concentration of 100 nM). In some experiments Paclitaxel (1 nM) and Doxorubicin (20 nM) were used in combination with J1-65D mAb treatment. Every 2 days pictures were taken and half of the medium was replaced with fresh one containing mAb/drug. At the end of the experiment, spheroids were either lysed for RNA extraction, were processed and paraffin-embedded for immunohistochemical analysis or were dissociated by pipetting and trypsinization into single cell suspensions for FACS analysis. Spheroid size was evaluated by image analysis using ImageJ software.

[3] = Soluble aggregates of transiently expressed antibodies; format: physicochemical; settings: Protein A purified antibody
From the text: The protein yield of these antibodies, their levels of soluble aggregates and their binding affinity to the immunogen (J1-DE3) are illustrated in (Table 6).

[4] = target: T1, N1 binding to cell surface expressed hJ1 (Homo sapiens, UniProt P78504); experiment: Notch binding blocking assay (FACS): N1 EGF11-13 beads staining human J1-expressing cells; design: key: +: Complete blocking; X: No blocking
T1 construct: cell expressed full length human J1 (hJ1; HEK293 transfectants); expressed in transfected cells; host or cells: HEK293
In short: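 E. coli-expressed, refolded human N1 EGF11-13 (411-526), biotinylated on avidin-coated fluorescent beads, stained human J1-transfected HEK293 cells with hybridoma supernatant or purified antibody diluted in HBSS/10% FCS. Purified mAbs titrated in dilution series; bead binding read by flow cytometry.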

[5] = humanised/chimeric mAbs 10 μg/ml, NE3-Fc, DBZ control
[6] = final antibody concentration 0.2 μg/ml
[7] = final antibody concentration 0.4 μg/ml
[8] = final antibody concentration 0.6 μg/ml
[9] = final antibody concentration 1.0 μg/ml

T1 sequence (P78504 34-1218): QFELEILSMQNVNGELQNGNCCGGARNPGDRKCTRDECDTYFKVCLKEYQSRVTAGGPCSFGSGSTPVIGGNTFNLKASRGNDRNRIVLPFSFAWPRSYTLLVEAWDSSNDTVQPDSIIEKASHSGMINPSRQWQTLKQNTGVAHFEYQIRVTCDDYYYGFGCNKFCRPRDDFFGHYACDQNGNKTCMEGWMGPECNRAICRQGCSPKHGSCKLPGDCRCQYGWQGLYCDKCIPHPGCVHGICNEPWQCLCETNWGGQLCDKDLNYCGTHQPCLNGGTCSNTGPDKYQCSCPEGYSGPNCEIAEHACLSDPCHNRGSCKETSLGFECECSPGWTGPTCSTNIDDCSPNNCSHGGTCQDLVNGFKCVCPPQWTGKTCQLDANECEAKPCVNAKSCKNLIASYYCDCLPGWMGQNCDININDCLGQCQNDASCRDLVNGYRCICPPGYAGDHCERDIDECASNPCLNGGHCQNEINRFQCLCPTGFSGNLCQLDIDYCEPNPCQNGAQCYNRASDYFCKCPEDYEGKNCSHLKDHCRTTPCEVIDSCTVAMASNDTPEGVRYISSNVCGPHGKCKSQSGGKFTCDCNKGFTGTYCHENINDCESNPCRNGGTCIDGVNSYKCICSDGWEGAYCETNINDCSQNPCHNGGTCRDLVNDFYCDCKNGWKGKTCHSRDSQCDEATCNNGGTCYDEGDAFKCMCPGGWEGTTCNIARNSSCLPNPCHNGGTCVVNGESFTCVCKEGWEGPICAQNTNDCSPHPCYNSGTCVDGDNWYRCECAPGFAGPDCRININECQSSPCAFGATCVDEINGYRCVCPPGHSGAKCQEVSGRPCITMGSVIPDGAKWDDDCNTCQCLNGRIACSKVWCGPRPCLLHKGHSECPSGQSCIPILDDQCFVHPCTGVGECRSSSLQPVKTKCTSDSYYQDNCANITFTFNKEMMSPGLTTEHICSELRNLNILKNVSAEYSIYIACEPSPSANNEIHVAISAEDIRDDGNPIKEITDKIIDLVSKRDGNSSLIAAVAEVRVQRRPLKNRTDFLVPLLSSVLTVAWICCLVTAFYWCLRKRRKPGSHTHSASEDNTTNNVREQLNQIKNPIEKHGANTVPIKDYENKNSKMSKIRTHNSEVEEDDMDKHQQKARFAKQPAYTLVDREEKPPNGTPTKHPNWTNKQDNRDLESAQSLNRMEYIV

Molecule | inhibition of J1-induced luciferase activity ([1]; NE3-Fc and NE12-Fc, mAbs 10 μg/ml, DBZ 100 nM) | inhibition of J1-induced luciferase activity [1, 5] | repression of murine Hes1 expression [2] | spheroid growth inhibition (MDA-MB-231 spheroids) | % soluble aggregate [3] [%] | Blocking of Notch1 binding to cell surface Jagged 1 [4, 6] | Blocking of Notch1 binding to cell surface Jagged 1 [4, 7] | Blocking of Notch1 binding to cell surface Jagged 1 [4, 8] | Blocking of Notch1 binding to cell surface Jagged 1 [4, 9]
C[C@H](NC(=O)Cc1cc(F)cc(F)c1)C(=O)N[C@@H]1C(=O)N(C)c2ccccc2-c2ccccc21 [DBZ, reference compound] | blocked | blocked | Repression of Hes1 expression was observed |  |  |  |  |  | 
B1 |  | inhibited as effectively as by the parental murine mAb |  | increasingly less effect | 0.93 | X | + (Complete blocking) | + (Complete blocking) | + (Complete blocking)
B2 |  | inhibited as effectively as by the parental murine mAb |  | increasingly less effect | 3.49 | X | + (Complete blocking) | + (Complete blocking) | + (Complete blocking)
